{"source": "patent US20190134153A1", "about": "“IMMUNOMODULATORY EFFECT OF INHALED KINASE INHIBITOR PEPTIDES IN LUNG” (MOERAE MATRIX, INC., priority 2017, published 2019)", "assay_in_all_cases": "Kinase Profiling Assay", "assay_type_in_all_cases": "biochemical", "settings_in_all_cases": "100 μM", "key": {"ALK(h)": {"target": "ALK(h) (Homo sapiens, UniProt Q9UM73)", "sequence (Q9UM73 19-1620)": "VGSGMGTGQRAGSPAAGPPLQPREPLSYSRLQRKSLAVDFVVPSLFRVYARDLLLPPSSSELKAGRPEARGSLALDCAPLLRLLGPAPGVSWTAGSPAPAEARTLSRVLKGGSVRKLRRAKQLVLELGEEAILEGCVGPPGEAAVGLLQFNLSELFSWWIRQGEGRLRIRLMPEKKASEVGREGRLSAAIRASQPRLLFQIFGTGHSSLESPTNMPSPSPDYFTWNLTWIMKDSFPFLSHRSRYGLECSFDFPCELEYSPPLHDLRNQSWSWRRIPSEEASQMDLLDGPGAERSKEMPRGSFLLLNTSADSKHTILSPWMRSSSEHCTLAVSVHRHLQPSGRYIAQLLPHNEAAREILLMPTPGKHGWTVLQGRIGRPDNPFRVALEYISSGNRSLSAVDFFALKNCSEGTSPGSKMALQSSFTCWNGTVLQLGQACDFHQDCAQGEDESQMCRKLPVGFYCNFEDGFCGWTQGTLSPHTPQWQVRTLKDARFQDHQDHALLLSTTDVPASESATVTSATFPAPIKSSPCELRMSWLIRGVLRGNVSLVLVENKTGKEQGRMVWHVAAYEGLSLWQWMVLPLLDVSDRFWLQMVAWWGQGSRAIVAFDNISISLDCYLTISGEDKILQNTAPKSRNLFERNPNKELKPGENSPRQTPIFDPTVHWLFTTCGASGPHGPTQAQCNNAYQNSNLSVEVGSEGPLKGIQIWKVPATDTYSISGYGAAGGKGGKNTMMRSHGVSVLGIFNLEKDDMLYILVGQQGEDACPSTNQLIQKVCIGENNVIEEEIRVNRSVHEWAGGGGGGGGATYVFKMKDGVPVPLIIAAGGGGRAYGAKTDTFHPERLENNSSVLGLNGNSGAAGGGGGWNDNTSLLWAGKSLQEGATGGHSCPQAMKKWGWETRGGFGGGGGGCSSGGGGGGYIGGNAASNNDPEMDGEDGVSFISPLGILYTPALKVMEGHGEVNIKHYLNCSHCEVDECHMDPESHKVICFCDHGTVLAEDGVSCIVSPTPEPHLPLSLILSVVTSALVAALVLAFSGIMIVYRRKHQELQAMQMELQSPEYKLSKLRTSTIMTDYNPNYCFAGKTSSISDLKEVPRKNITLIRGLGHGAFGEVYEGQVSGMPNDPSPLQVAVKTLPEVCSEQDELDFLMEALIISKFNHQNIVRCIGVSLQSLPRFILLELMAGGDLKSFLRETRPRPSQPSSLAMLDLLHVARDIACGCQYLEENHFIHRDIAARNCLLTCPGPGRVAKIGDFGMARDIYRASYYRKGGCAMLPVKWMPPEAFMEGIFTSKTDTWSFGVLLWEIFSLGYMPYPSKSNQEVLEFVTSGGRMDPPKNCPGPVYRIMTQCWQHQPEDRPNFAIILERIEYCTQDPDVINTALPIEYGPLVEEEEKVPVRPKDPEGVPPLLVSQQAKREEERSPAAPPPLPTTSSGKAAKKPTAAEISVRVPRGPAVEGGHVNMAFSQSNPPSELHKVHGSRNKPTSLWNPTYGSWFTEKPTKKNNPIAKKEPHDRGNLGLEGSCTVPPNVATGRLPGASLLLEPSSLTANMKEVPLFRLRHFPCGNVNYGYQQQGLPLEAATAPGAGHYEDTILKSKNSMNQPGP"}, "CaMKI(h)": {"target": "CaMKI(h) (Homo sapiens, UniProt Q14012)"}, "EGFR(h)": {"target": "EGFR(h) (Homo sapiens, UniProt P00533)"}, "FAK(h)": {"target": "FAK(h) (Homo sapiens, UniProt Q05397)", "sequence (Q05397 whole entry)": "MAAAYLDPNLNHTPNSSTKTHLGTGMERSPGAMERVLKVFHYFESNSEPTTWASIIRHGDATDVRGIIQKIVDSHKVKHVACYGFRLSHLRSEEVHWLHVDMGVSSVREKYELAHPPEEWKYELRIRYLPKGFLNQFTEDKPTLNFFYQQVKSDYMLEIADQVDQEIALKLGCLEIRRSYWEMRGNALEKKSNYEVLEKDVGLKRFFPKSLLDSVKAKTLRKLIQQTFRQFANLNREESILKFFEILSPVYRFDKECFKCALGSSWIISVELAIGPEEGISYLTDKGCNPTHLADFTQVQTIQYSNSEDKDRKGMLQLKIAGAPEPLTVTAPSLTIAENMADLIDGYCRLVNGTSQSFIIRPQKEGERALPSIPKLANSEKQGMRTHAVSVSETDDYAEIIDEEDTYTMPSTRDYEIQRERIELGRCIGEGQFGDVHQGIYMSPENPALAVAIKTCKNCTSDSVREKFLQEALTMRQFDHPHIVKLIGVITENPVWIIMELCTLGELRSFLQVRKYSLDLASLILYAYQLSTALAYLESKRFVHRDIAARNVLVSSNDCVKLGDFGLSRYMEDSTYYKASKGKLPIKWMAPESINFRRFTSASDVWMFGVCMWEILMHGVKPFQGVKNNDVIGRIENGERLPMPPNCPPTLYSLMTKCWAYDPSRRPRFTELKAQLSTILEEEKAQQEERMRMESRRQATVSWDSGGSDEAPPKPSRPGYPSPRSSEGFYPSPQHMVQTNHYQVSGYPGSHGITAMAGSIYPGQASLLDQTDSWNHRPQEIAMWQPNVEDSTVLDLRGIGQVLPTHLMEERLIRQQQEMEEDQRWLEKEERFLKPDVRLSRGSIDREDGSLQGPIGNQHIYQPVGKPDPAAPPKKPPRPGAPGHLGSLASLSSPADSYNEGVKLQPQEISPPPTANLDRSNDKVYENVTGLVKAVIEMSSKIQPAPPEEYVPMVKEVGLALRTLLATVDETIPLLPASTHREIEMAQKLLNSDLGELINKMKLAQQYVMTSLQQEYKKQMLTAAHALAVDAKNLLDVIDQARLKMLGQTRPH"}, "FGFR3(h)": {"target": "FGFR3(h) (Homo sapiens, UniProt P22607)"}, "JAK2(h)": {"target": "JAK2(h) (Homo sapiens, UniProt O60674)", "sequence (O60674 whole entry)": "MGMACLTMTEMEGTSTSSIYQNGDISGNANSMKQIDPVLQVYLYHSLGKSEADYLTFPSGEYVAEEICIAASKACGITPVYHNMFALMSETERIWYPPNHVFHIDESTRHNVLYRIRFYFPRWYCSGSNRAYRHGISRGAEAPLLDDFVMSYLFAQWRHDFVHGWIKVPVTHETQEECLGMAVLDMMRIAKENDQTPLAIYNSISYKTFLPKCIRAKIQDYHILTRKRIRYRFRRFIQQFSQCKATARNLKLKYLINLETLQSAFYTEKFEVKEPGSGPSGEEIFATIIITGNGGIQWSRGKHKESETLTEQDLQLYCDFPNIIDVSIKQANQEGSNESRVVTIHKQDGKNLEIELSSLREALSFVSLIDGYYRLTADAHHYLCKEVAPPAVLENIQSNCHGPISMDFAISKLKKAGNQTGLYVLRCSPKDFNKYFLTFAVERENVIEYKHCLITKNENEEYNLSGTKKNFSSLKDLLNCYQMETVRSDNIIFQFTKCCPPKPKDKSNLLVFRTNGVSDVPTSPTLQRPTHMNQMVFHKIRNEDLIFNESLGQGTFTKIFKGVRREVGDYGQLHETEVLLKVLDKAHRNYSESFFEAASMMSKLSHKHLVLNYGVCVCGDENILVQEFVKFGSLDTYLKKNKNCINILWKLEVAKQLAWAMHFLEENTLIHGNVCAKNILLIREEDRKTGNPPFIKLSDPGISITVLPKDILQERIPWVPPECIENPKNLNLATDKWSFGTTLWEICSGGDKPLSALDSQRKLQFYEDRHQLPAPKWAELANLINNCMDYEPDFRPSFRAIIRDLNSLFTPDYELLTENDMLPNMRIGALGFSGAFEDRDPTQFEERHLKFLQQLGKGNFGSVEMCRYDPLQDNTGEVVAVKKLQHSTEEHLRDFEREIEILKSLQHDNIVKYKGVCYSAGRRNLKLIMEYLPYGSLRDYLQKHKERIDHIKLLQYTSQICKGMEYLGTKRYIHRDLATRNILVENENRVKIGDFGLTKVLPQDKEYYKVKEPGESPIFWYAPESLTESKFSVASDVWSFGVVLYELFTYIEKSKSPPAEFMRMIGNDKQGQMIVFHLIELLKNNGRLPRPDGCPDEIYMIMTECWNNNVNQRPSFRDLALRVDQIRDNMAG"}, "Lck(h) activated": {"target": "Lck(h) activated (Homo sapiens, UniProt P06239)", "sequence (P06239 whole entry)": "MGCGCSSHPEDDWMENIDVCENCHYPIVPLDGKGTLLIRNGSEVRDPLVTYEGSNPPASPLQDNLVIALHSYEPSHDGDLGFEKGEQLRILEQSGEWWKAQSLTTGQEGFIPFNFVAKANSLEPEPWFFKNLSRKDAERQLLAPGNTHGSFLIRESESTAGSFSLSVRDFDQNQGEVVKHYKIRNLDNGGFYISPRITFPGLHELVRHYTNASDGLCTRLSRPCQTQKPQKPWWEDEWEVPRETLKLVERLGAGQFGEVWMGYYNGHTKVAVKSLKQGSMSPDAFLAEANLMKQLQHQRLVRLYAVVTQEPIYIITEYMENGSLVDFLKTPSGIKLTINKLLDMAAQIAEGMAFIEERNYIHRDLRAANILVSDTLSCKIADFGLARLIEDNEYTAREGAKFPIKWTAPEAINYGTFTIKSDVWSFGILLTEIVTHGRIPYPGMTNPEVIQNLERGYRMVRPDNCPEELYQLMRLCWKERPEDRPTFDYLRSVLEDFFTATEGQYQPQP"}, "MELK(h)": {"target": "MELK(h) (Homo sapiens, UniProt Q14680)"}, "PAK5(h)": {"target": "PAK5(h) (Homo sapiens, UniProt Q9P286)"}, "Pyk2(h)": {"target": "Pyk2(h) (Homo sapiens, UniProt Q14289)"}, "Rsk2(h)": {"target": "Rsk2(h) (Homo sapiens, UniProt P51812)", "sequence (P51812 whole entry)": "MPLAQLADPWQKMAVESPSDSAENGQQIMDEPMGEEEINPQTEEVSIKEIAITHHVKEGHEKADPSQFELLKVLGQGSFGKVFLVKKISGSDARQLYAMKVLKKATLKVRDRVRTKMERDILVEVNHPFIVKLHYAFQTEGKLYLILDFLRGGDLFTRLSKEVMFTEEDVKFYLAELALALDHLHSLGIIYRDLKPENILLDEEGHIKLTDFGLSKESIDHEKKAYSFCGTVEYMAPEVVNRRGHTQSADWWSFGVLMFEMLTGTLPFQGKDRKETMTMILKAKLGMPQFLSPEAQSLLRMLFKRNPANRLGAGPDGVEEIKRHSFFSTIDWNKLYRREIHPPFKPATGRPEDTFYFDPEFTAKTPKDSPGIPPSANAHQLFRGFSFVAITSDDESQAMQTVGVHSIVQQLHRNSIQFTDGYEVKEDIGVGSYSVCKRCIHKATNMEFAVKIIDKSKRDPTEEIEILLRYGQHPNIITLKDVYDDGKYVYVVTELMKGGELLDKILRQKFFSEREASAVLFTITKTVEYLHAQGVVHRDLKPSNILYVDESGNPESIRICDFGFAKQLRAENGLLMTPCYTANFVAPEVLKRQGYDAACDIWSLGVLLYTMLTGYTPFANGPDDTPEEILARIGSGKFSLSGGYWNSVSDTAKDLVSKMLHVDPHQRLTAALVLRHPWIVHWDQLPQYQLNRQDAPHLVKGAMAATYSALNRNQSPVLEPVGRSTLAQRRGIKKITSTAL"}, "STK33(h)": {"target": "STK33(h) (Homo sapiens, UniProt Q9BYT3)"}, "TrkB(h)": {"target": "TrkB(h) (Homo sapiens, UniProt Q16620)"}, "cKit(V654A)(h)": {"target": "cKit(V654A)(h) (Homo sapiens, UniProt P10721, V654A)"}, "IKKα(h)": {"target": "T1, IKKα(h) (Homo sapiens, UniProt O15111)", "T1 sequence (O15111 1-745)": "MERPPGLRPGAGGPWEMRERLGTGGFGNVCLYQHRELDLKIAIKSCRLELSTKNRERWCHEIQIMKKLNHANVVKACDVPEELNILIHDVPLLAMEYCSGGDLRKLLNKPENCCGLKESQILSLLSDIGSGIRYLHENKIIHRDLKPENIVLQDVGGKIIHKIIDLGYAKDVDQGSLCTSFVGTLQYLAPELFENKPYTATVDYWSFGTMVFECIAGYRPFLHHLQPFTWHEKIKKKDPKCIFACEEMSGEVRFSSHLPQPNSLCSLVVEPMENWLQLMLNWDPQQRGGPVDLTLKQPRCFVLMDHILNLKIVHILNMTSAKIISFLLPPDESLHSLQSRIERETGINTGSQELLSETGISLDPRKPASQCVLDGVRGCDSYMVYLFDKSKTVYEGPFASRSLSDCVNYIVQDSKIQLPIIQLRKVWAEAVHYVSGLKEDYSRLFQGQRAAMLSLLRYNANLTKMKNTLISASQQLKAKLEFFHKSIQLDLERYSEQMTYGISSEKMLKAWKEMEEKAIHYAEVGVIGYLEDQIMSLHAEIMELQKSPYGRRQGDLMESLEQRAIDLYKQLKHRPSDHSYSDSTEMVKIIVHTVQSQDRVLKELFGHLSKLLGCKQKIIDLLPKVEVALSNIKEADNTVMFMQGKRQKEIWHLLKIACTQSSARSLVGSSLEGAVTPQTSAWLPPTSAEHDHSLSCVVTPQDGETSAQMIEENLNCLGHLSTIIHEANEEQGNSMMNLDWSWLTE"}, "SGK(h)": {"target": "T2, SGK(h) (Homo sapiens, UniProt O00141)", "T2 sequence (O00141 1-431)": "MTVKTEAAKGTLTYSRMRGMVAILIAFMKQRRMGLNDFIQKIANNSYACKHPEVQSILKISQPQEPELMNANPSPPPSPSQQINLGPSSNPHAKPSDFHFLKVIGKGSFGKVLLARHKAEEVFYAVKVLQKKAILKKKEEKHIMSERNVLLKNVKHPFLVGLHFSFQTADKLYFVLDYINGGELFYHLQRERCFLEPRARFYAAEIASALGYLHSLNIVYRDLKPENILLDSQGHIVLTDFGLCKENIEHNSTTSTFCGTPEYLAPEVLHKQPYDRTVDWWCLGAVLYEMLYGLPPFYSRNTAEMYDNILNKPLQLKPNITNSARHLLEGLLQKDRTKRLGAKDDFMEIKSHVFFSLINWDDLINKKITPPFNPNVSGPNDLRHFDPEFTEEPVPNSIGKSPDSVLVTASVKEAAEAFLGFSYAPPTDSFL"}, "SGK2(h)": {"target": "T3, SGK2(h) (Homo sapiens, UniProt Q9HBY8)", "T3 sequence (Q9HBY8 1-367)": "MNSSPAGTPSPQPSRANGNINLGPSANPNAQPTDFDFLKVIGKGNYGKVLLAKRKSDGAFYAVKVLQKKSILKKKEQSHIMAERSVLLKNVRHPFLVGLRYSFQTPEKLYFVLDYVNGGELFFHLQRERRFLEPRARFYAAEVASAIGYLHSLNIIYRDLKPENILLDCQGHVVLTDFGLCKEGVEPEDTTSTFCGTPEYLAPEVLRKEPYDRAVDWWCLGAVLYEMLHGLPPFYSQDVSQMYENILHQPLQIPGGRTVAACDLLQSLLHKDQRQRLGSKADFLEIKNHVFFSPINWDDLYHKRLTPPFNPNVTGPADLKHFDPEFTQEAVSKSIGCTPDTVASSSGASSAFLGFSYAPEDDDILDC"}}, "data": [{"sequence": "YARAAARQARAKALNRQLGVA [MMI-0200]", "values": [{"measurement": "% activity", "setting": "ALK(h)", "value": 95, "unit": "%"}, {"measurement": "% activity", "setting": "CaMKI(h)", "value": 21, "unit": "%"}, {"measurement": "% activity", "setting": "EGFR(h)", "value": 83, "unit": "%"}, {"measurement": "% activity", "setting": "FAK(h)", "value": 110, "unit": "%"}, {"measurement": "% activity", "setting": "FGFR3(h)", "value": 208, "unit": "%"}, {"measurement": "% activity", "setting": "JAK2(h)", "value": 131, "unit": "%"}, {"measurement": "% activity", "setting": "Lck(h) activated", "value": 90, "unit": "%"}, {"measurement": "% activity", "setting": "MELK(h)", "value": 59, "unit": "%"}, {"measurement": "% activity", "setting": "PAK5(h)", "value": 100, "unit": "%"}, {"measurement": "% activity", "setting": "Pyk2(h)", "value": 127, "unit": "%"}, {"measurement": "% activity", "setting": "Rsk2(h)", "value": 101, "unit": "%"}, {"measurement": "% activity", "setting": "STK33(h)", "value": 98, "unit": "%"}, {"measurement": "% activity", "setting": "TrkB(h)", "value": 7, "unit": "%"}]}, {"sequence": "KAFAKLAARLYRKALARQLGVAA [MMI-0400]", "values": [{"measurement": "% activity", "setting": "ALK(h)", "value": 16, "unit": "%"}, {"measurement": "% activity", "setting": "CaMKI(h)", "value": 0, "unit": "%"}, {"measurement": "% activity", "setting": "cKit(V654A)(h)", "value": 150, "unit": "%"}, {"measurement": "% activity", "setting": "EGFR(h)", "value": 16, "unit": "%"}, {"measurement": "% activity", "setting": "FAK(h)", "value": 96, "unit": "%"}, {"measurement": "% activity", "setting": "FGFR3(h)", "value": 0, "unit": "%"}, {"measurement": "% activity", "setting": "IKKα(h)", "value": 87, "unit": "%"}, {"measurement": "% activity", "setting": "Lck(h) activated", "value": 216, "unit": "%"}, {"measurement": "% activity", "setting": "MELK(h)", "value": 17, "unit": "%"}, {"measurement": "% activity", "setting": "Pyk2(h)", "value": 34, "unit": "%"}, {"measurement": "% activity", "setting": "Rsk2(h)", "value": 38, "unit": "%"}, {"measurement": "% activity", "setting": "SGK(h)", "value": 54, "unit": "%"}, {"measurement": "% activity", "setting": "SGK2(h)", "value": 98, "unit": "%"}, {"measurement": "% activity", "setting": "STK33(h)", "value": 52, "unit": "%"}, {"measurement": "% activity", "setting": "TrkB(h)", "value": 8, "unit": "%"}]}, {"sequence": "HRRIKAWLKKIKALARQLGVAA [MMI-0500]", "values": [{"measurement": "% activity", "setting": "ALK(h)", "value": 12, "unit": "%"}, {"measurement": "% activity", "setting": "CaMKI(h)", "value": "−1", "unit": "%"}, {"measurement": "% activity", "setting": "cKit(V654A)(h)", "value": 223, "unit": "%"}, {"measurement": "% activity", "setting": "EGFR(h)", "value": "−1", "unit": "%"}, {"measurement": "% activity", "setting": "FAK(h)", "value": 94, "unit": "%"}, {"measurement": "% activity", "setting": "FGFR3(h)", "value": 10, "unit": "%"}, {"measurement": "% activity", "setting": "IKKα(h)", "value": 50, "unit": "%"}, {"measurement": "% activity", "setting": "JAK2(h)", "value": 49, "unit": "%"}, {"measurement": "% activity", "setting": "Lck(h) activated", "value": 76, "unit": "%"}, {"measurement": "% activity", "setting": "MELK(h)", "value": 0, "unit": "%"}, {"measurement": "% activity", "setting": "PAK5(h)", "value": 125, "unit": "%"}, {"measurement": "% activity", "setting": "Pyk2(h)", "value": 46, "unit": "%"}, {"measurement": "% activity", "setting": "Rsk2(h)", "value": 14, "unit": "%"}, {"measurement": "% activity", "setting": "SGK(h)", "value": 2, "unit": "%"}, {"measurement": "% activity", "setting": "SGK2(h)", "value": "−1", "unit": "%"}, {"measurement": "% activity", "setting": "STK33(h)", "value": 16, "unit": "%"}, {"measurement": "% activity", "setting": "TrkB(h)", "value": 12, "unit": "%"}]}, {"sequence": "FAKLAARLYRKALARQLGVAA [MMI-0300]", "values": [{"measurement": "% activity", "setting": "ALK(h)", "value": 19, "unit": "%"}, {"measurement": "% activity", "setting": "CaMKI(h)", "value": 1, "unit": "%"}, {"measurement": "% activity", "setting": "cKit(V654A)(h)", "value": 134, "unit": "%"}, {"measurement": "% activity", "setting": "EGFR(h)", "value": 21, "unit": "%"}, {"measurement": "% activity", "setting": "IKKα(h)", "value": 93, "unit": "%"}, {"measurement": "% activity", "setting": "JAK2(h)", "value": 133, "unit": "%"}, {"measurement": "% activity", "setting": "Lck(h) activated", "value": 243, "unit": "%"}, {"measurement": "% activity", "setting": "MELK(h)", "value": 16, "unit": "%"}, {"measurement": "% activity", "setting": "PAK5(h)", "value": 110, "unit": "%"}, {"measurement": "% activity", "setting": "Pyk2(h)", "value": 47, "unit": "%"}, {"measurement": "% activity", "setting": "Rsk2(h)", "value": 51, "unit": "%"}, {"measurement": "% activity", "setting": "SGK(h)", "value": 48, "unit": "%"}, {"measurement": "% activity", "setting": "SGK2(h)", "value": 56, "unit": "%"}, {"measurement": "% activity", "setting": "STK33(h)", "value": 45, "unit": "%"}, {"measurement": "% activity", "setting": "TrkB(h)", "value": 5, "unit": "%"}]}]}
